{"source": "patent US9011842", "test_system": "T1, 33-mer peptide fragment of α-gliadin, LQLQPFPQPQLPYPQPQLPYPQPQLPYPQPQPF (SEQ ID NO:1)", "T1 sequence": "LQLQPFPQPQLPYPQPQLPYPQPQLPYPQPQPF"}
{"substance": "chymotrypsin", "values": [{"measurement": "digestion of the 33-mer peptide (HPLC-MS), in vitro gastrointestinal model, digestive enzymes only", "value": "The digestive enzymes only (pepsin, trypsin, and chymotrypsin) failed to digest the 33-mer peptide"}]}
{"substance": "trypsin", "values": [{"measurement": "digestion of the 33-mer peptide (HPLC-MS), in vitro gastrointestinal model, digestive enzymes only", "value": "The digestive enzymes only (pepsin, trypsin, and chymotrypsin) failed to digest the 33-mer peptide"}]}
{"substance": "Aorsin A", "values": [{"measurement": "degradation of the 33-mer peptide (ELISA of intact 33-mer), 240 min, pH 4.0", "value": "Incubation with either Aorsin A or B for about 240 minutes resulted in complete degradation of the 33-mer peptide"}, {"measurement": "hydrolysis of the 33-mer peptide (HPLC-MS), citrate buffer pH 4.0", "value": "When incubated with the 33-mer peptide in acidic conditions (pH≈4.0), Aorsin A hydrolyzed the 33-mer"}]}
{"substance": "pepsin", "values": [{"measurement": "digestion of the 33-mer peptide (HPLC-MS), in vitro gastrointestinal model, digestive enzymes only", "value": "The digestive enzymes only (pepsin, trypsin, and chymotrypsin) failed to digest the 33-mer peptide"}, {"measurement": "hydrolysis of the 33-mer peptide (HPLC-MS), 15 hours, SGF pH 2.0", "value": "At gastric conditions (pH≈2.0), pepsin did not hydrolyze most of the 33-mer peptide"}]}
{"substance": "Aspergillus niger prolyl endopeptidase", "values": [{"measurement": "hydrolysis of the 33-mer peptide (HPLC-MS and ELISA), pH 5.0", "value": "CPY, MX-PEP, and AN-PEP hydrolyze the 33-mer peptide. AN-PEP appears to have the strongest activity against the 33-mer peptide, followed by CPY and then MX-PEP"}]}
{"substance": "Aorsin B", "values": [{"measurement": "degradation of the 33-mer peptide (ELISA of intact 33-mer), 240 min, pH 4.0", "value": "Incubation with either Aorsin A or B for about 240 minutes resulted in complete degradation of the 33-mer peptide"}, {"measurement": "hydrolysis of the 33-mer peptide (HPLC-MS), citrate buffer pH 4.0", "value": "when incubated with the 33-mer peptide in acidic conditions (pH≈4.0), Aorsin B hydrolyzed the 33-mer"}]}
{"substance": "Neutral protease I", "values": [{"measurement": "degradation of the 33-mer peptide (ELISA of intact 33-mer), 0.1 mg/ml enzyme, SIF pH 6.8", "value": "NP I and NP II each exhibited a limited ability to degrade the 33-mer peptide"}, {"measurement": "percent of the 33-mer peptide degraded (ELISA), 60 min, SIF pH 6.8", "value": "NP I alone degraded about 40% of the 33-mer peptide"}]}
{"substance": "Myxococcus xanthus prolyl endopeptidase", "values": [{"measurement": "hydrolysis of the 33-mer peptide (HPLC-MS and ELISA), SIF pH 6.8", "value": "CPY, MX-PEP, and AN-PEP hydrolyze the 33-mer peptide. AN-PEP appears to have the strongest activity against the 33-mer peptide, followed by CPY and then MX-PEP"}, {"measurement": "hydrolysis of the 33-mer peptide (HPLC-MS), 4 hours, buffer pH 4.0 to 7.0", "value": "MX-PEP did not hydrolyze the 33-mer peptide at an acidic pH"}]}
